Measurements from paper PMC9645710, “Cryo-EM structures of peripherin-2 and ROM1 suggest multiple roles in photoreceptor membrane morphogenesis” (Science Advances, 2022).
Substitutions are numbered along the chain they refer to. In names and notes the source's numbering stands. Each block holds one binder with its values, some of them ahead of it.

How the values were obtained:
[1] = molecular target: T1, ROM1 (human rod outer segment membrane protein 1, N-terminal Strep3-GFP tag) (human, UniProt Q03395 1-351); test: cryo-EM structure; PRPH2^C150S-ROM1 purified in 25 mM tris-HCl, 150 mM NaCl, pH 7.5, 0.025% DDM/CHS, incubated with an excess of Nanobody19, ~9 mg/ml; single-particle map at 3.7 A; details: both partners purified
T1 construct: rod outer segment membrane protein 1 (ROM1), human, full length; codon-optimized cDNA from GeneArt in a pUPE vector; Residues 323 to 351 were not modelled in the structure; also called retinal outer segment protein 1; source: HEK293T, transiently transfected together with PRPH2^C150S, solubilized in DDM/CHS, purified (Strep-Tactin, SEC); not shown: Strep3, N-terminal, kept

[2] = molecular target: the molecule itself; test: SEC; PRPH2 and ROM1 (wild type or cysteine mutants) expressed in HEK293T, solubilized in DDM/CHS; Superdex 200 Increase 10/300 GL, 25 mM tris-HCl, 150 mM NaCl, pH 7.5, 0.025% DDM/CHS; no reducing agent
[3] = molecular target: T2, ROM1 (human rod outer segment membrane protein 1, wild type, N-terminal Strep3 tag) (human, UniProt Q03395 1-351); test: cryo-EM structure; wild-type PRPH2-ROM1, one SEC fraction of heterogeneous complexes in 0.025% DDM/CHS, ~3.6 mg/ml; maps of tetramer, hexamer and octamer at ~7-8 A with the heterodimer docked in; the sizes count chains of PRPH2 and ROM1 together; details: both partners purified
T2 construct: rod outer segment membrane protein 1 (ROM1), human, full length; codon-optimized cDNA from GeneArt in a pUPE vector; source: HEK293T, transiently transfected together with PRPH2, solubilized in DDM/CHS, purified (Strep-Tactin, SEC); not shown: Strep3, N-terminal, kept

[4] = molecular target: T3, ROM1 (human rod outer segment membrane protein 1, N-terminal Strep3-GFP tag) (human, UniProt Q03395); test: cryo-EM structure; PRPH2^C150S-ROM1 purified in 25 mM tris-HCl, 150 mM NaCl, pH 7.5, 0.025% DDM/CHS, incubated with an excess of Nanobody19, ~9 mg/ml; single-particle map at 3.7 A; details: both partners purified
T3 construct: rod outer segment membrane protein 1 (ROM1), human, full length; codon-optimized cDNA from GeneArt in a pUPE vector; Residues 323 to 351 were not modelled in the structure; also called retinal outer segment protein 1; source: HEK293T, transiently transfected together with PRPH2^C150S, solubilized in DDM/CHS, purified (Strep-Tactin, SEC); not shown: Strep3, N-terminal, kept

[5] = molecular target: T4, PRPH2^C150S-ROM1 heterodimer (human, UniProt P23942;Q03395, C150S, N-acetylglucosamine on Asn229 (density in the map); possible glycosylation at Asn53); test: as above; details: both partners purified
T4 construct: peripherin-2 (PRPH2), human, full length; as m1; rod outer segment membrane protein 1 (ROM1), human, full length; as m2; Formed and purified before Nanobody19 was added; also called PRPH2^C150S-ROM1 complex; PRPH2-ROM1 heterodimer; source: HEK293T, transiently co-transfected, solubilized in DDM/CHS, purified (Strep-Tactin, SEC); not shown: Strep3, N-terminal, kept; copies: 1 + 1
T4 sequence (Q03395 whole entry, stated change not applied, one chain of several): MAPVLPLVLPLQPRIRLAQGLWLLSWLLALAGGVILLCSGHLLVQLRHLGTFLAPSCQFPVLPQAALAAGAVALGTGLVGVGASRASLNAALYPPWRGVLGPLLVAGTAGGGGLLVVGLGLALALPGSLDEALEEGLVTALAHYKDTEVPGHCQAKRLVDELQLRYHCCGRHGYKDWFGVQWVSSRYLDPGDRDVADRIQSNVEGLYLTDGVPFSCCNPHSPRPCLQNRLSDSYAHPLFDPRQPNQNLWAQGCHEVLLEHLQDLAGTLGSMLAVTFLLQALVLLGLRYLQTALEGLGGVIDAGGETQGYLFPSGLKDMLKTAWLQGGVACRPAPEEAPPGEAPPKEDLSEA

T2 sequence (Q03395 whole entry): as the sequence (Q03395 whole entry, stated change not applied, one chain of several) above

binding result [1]: binds
B1: PRPH2^C150S (human peripherin-2 with mutation C150S, N-terminal 6x-His tag) (natural protein, UniProt P23942 1-346, looked up)
chain: MALLKVKFDQKKRVKLAQGLWLMNWFSVLAGIIIFSLGLFLKIELRKRSDVMNNSESHFVPNSLIGMGVLSCVFNSLAGKICYDALDPAKYARWKPWLKPYLAICVLFNIILFLVALCCFLLRGSLENTLGQGLKNGMKYYRDTDTPGRSFMKKTIDMLQIEFKCCGNNGFRDWFEIQWISNRYLDFSSKEVKDRIKSNVDGRYLVDGVPFSCCNPSSPRPCIQYQITNNSAHYSYDHQTEELNLWVRGCRAALLSYYSSLMNSMGVVTLLIWLFEVTITIGLRYLQTSLDGVSNPEESESESQGWLLERSVPETWKAFLESVKKLGKGNQVEAEGADAGQAPEAG
modifications: N-acetylglucosamine on Asn229 (density in the map); possible glycosylation at Asn53
notes: peripherin-2 (PRPH2), human, full length; codon-optimized cDNA from GeneArt in a pUPE vector; Residues 322 to 346 were not modelled in the structure; source: HEK293T, transiently transfected together with ROM1, solubilized in DDM/CHS, purified (Strep-Tactin through ROM1, SEC)

binding result [3]: binds
B2: PRPH2 (human peripherin-2, wild type, N-terminal 6x-His tag) (natural protein, UniProt P23942 1-346, looked up)
chain: B1 chain with S150C
notes: peripherin-2 (PRPH2), human, full length; codon-optimized cDNA from GeneArt in a pUPE vector; The tag is told for the oligomer preparation; source: HEK293T, transiently transfected together with ROM1, solubilized in DDM/CHS, purified (Strep-Tactin through ROM1, SEC)
stoichiometry N [2]: 2

binding result [4]: binds
stoichiometry N [5]: 1
B3: Nanobody19 (VHH)
VHH: QVQLQESGGGLVQAGGSLRLSCAASTRTTSRYTVGWFCQAPGKEREFVAAVHWSGGSTWYADSVKGRFTISRDNAKNTVYLQMNSLKQEDTAVYYCAAAEPRRYSYYMRPDEYNYWGQGTQVTVSS
notes: modelled in the deposited structure PDB 7ZW1; also called Nb19; source: E. coli BL21(DE3), purified (Ni-NTA, SEC)
